This is an account of results in publication PMC9674253.

Series [1] addresses NPAS4 (1-348);ARNT (82-465) (mouse;mouse, UniProt Q8BGD7;P53762 1-348;82-465, |). As to the kind of experiment: fluorescence polarization.
Series [2] has as its target NPAS4 (1-348);ARNT2 (50-439) (mouse;mouse, UniProt Q8BGD7;Q61324 1-348;50-439, |). In words: fluorescence polarization.

Sequence of NPAS4 (1-348);ARNT (82-465) (Q8BGD7 1-348, chain 1 of 2): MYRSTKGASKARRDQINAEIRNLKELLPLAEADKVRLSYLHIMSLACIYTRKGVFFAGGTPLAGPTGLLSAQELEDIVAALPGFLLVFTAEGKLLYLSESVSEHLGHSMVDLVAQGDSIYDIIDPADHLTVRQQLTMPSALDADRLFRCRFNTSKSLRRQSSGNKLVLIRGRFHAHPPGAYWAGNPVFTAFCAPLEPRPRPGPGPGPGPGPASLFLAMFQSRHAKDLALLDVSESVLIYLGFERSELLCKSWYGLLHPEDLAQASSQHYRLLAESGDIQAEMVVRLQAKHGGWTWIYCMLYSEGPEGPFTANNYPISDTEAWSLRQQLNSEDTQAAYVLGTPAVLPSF
Sequence of NPAS4 (1-348);ARNT (82-465) (P53762 82-465, chain 2 of 2): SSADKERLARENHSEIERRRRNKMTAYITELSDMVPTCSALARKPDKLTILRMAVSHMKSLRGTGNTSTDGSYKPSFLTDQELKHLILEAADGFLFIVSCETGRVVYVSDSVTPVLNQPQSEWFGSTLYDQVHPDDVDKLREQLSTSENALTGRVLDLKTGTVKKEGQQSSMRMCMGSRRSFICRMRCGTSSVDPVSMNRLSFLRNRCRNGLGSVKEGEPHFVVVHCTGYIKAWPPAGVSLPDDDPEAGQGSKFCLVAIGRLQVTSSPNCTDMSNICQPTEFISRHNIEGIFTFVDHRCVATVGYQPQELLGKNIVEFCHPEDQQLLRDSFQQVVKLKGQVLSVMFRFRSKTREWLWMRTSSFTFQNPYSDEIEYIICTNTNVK
Sequence of NPAS4 (1-348);ARNT2 (50-439) (Q8BGD7 1-348, chain 1 of 2): as the sequence (Q8BGD7 1-348, chain 1 of 2) above
Sequence of NPAS4 (1-348);ARNT2 (50-439) (Q61324 50-439, chain 2 of 2): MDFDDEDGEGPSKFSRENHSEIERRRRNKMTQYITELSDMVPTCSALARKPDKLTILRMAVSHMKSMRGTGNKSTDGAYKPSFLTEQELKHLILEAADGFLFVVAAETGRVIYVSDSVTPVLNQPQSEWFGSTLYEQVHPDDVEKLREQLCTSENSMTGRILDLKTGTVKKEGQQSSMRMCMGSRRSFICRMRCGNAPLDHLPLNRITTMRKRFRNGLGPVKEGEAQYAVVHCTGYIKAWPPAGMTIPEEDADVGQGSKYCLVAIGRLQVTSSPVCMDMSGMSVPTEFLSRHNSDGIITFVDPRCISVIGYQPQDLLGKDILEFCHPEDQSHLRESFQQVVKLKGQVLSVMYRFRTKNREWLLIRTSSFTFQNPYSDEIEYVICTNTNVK

B1: 21-mer NPAS4 response element (FP) (dsDNA)
DNA 1: GGATGAGGTCGTGAGTGATGA
DNA 2: TCATCACTCACGACCTCATCC
Consider B1, for which the Kd in series [1] is 13.1 ± 0.4 nM; in series [2], 46.8 ± 3.9 nM.
